Laboratory results as given in paper PMC9638875 (EMBO Reports, 2022).

Molecular target: the molecule itself
Test: SEC

B1: His6-eVP40 (Ebola virus matrix protein VP40) (natural protein)
chain: MRRVILPTAPPEYMEAIYPVRSNSTIARGGNSNTGFLTPESVNGDTPSNPLRPIADDTIDHASHTPGSVSSAFILEAMVNVISGPKVLMKQIPIWLPLGVADQKTYSFDSTTAAIMLASYTITHFGKATNPLVRVNRLGPGIPDHPLRLLRIGNQAFLQEFVLPPVQLPQYFTFDLTALKLITQPLPAATWTDDTPTGSNGALRPGISFHPKLRPILLPNKSGKKGNSADLTSPEKIQAIMTSLQDFKIVPIDPTKNIMGIEVPETLVHKLTGKKVTSKNGQPIIPVLLPKYIGLDPVAPGDLTMVITQDCDTCHSPASLPAVIEK
  stoichiometry N: 2
